Legend:
[1] = target: PIKfyve from pig brain cytosol; test: proteo-liposome recruitment, western blot band quantification; conditions: 2 % input bar shown for reference, parent: est. 38, read off a plot
[2] = target: Vac14 from pig brain cytosol (UniProt F1S3E8); test: as above; conditions: 2 % input bar shown for reference, parent: est. 21, read off a plot
Sequence of UniProt F1S3E8 (F1S3E8 entry or part of it): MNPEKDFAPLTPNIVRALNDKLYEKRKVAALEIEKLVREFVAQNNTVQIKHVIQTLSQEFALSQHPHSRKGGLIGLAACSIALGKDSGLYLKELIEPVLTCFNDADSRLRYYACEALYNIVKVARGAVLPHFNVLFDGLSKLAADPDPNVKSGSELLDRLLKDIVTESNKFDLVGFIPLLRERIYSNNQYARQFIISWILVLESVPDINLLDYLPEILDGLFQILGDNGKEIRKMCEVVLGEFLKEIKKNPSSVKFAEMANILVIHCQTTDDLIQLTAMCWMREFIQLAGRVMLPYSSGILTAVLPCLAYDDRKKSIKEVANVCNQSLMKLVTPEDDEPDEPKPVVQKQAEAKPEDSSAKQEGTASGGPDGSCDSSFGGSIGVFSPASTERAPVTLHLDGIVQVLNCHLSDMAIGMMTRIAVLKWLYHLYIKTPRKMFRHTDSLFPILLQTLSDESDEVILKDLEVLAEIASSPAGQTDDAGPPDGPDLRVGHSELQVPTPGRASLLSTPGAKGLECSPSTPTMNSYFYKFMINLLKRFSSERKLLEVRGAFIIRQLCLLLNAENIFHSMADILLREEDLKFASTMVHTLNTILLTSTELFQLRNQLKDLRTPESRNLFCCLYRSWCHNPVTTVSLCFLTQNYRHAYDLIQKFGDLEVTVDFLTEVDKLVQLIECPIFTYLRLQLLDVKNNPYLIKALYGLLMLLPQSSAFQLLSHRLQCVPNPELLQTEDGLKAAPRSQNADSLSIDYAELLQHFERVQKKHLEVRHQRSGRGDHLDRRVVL

Row | Substance | response [1] [a.u.] | response [2] [a.u.]
1 | APP intracellular domain (AICD), full length AICD Y34A; E35A | 2.5 | 1
2 | APP intracellular domain (AICD), full length AICD T38A; Y39A | 3 | 0.7
3 | APP intracellular domain (AICD), full length AICD N36A; P37A | 8.5 | 3.5

— PMC4706845
